Source: patent US11988675B2, “Methods for quantifying frataxin activity” (Larimar Therapeutics, Inc., priority 2019, dated 2024)
Where two headings read alike, the source gives them in different places.

Experiments:
FXN fusion protein = biological target: T1, FXN fusion protein (Homo sapiens, UniProt Q16595); experiment: HQ assay in the presence of NADH or NADPH (FIG. 3, Panel B); type: biochemical; settings: added to the assay with Fe^3+
T1 sequence (Q16595 with tags, fused parts or gaps): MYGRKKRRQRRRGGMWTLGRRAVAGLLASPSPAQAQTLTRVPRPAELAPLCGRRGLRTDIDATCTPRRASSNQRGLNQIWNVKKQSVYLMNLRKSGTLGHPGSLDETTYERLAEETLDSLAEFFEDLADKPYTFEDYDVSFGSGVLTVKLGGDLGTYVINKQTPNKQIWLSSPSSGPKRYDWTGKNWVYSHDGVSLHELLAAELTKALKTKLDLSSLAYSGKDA
Description: Redox activity of the FXN fusion protein was also measured in the presence of NADPH and NADH.

[1] = Temperature stability study: HQ assay after one month storage; type: biochemical
Description: The goal of this experiment was to evaluate thermal stability of an exemplary FXN fusion protein by evaluating the activity of the FXN fusion protein after short-term storage (one month) at different temperatures.
(SPL1), 2-4° C. (SPL2) and 25° C. (SPL3), as compared to the DS control. […] (SPL1), 2-4° C. (SPL2) and 25° C. (SPL3), as compared to the DS control.

[2] = Chemical stability study: HQ assay after chemical stress; type: biochemical
Description: The goal of this experiment was to evaluate stability to chemical stress of an exemplary FXN fusion protein by evaluating the activity of the exemplary FXN fusion protein after its exposure to chemical stressors that may trigger protein denaturation and/or degradation of the FXN fusion protein.
Briefly, study control was stored at 2-8° C. over the course of the study. Each treatment was conducted as follows:
i. Acid treatment: 1N HCl was added to the solution containing FXN fusion protein until a pH≤4 was reached. The sample was kept at 37° C. for 2 days, and then the buffer exchanged for the buffer of the DS formulation. The sample was stored at 2-8° for the remainder of the study.
ii. Alkaline treatment: 1M Tris base was added to the solution containing FXN fusion protein until a pH≥10 was reached. The sample was kept at 37° C. for 2 days, and then the buffer was exchanged for the buffer of the DS formulation. The sample was stored at 2-8° C.
iii. Acid and Base control: solution containing FXN fusion protein was stored at 37° C. for 2 days, and then stored at 2-8° C.
iv. Oxidation stress treatment: exemplary FXN fusion protein was incubated in the presence of 0.05% hydrogen peroxide at 37° C. for 2 hours and then stored at 2-8° C.
v. Oxidation control: exemplary FXN fusion protein was incubated at 37° C. for 2 hours and then stored at 2-8° C.
vi. Heat stress treatment: exemplary FXN fusion protein was incubated at 50° for 2 hours then stored at 2-8° C.
All samples were analyzed for appearance, pH, protein quantification (by A280), size-exclusion ultra-performance liquid chromatography (SE-UPLC), reversed-phase high-performance liquid chromatography (RP-HPLC), ion-exchange high-performance liquid chromatography (IE-HPLC), reduced capillary electrophoresis sodium dodecyl sulfate (rCE-SDS), non-reduced capillary electrophoresis sodium dodecyl sulfate (nrCE-SDS), and free thiol (data not shown). The concentration of FXN fusion protein was determined by Western blot, and redox activity was determined using the HQ assay as described above.

[3] = 10 μM FXN fusion protein, 5 μM HQ, 5 μM Fe(III) sulfate
Description: The goal of this experiment was to evaluate pH dependence of HQ-dependent superoxide generating activity of an exemplary FXN fusion protein. FXN fusion protein of SEQ ID NO: 12 was used in this experiment. Specifically, kinetics of superoxide generation by an exemplary FXN fusion protein was evaluated at pHs ranging from 7.0 to 9.0. Each reaction mixture contained 5 μM HQ, 5 μM Fe(III) sulfate, 0.05 μM H2DCF and 10 μM exemplary FXN fusion protein in 50 mM Tris-HCL at pH of 7.0, 7.4, 7.8, 8.0, 8.2, 8.5 and 9.0.
The assay plate was placed in the plate reader and the kinetic read began immediately after all assay ingredients were mixed together. The plate reader settings were as follows: 2-hour kinetic scan with a Fluorescent read (excitation 485/20, emission 528/25, and a gain of 50) every 5-minutes with a 10 second shake between reads. Maximum initial velocity (Vi) was determined for each well by measuring fastest change in arbitrary fluorescence unit (AFU) over 5 data points.

[4] = Excerpt: The goal of the first part of the experiment was to validate performance of the HQ assay at the conditions used for the HTS. To this end, the HQ assay was characterized by measuring statistical parameters, such as signal-to-background (S/B) ratio, Z′ factor (which is a measure of the statistical robustness of the assay readout), and intra- and inter-plate variability. To this end, two 96-well plates were each split into 9 sections: 4 sections in each plate contained an exemplary FXN fusion protein at the concentration of 10 μM (high control); 4 sections contained the exemplary FXN fusion protein at the concentration of 0.5 μM (low control); and 1 section contained only the assay mix without the FXN fusion protein (blank control).
H2DCF was activated by incubating in the dark 1 mL of 1 mM H2DCF-DA in 20 mL of 0.01 M NaOH for 30 minutes while stirring. Subsequently, 75 mL of 33 mM NaH2PO4 was added to the activation mixture to yield a final H2DCF concentration of 10 μM. This solution was stored at 4° C. and protected from light until use. The assay mix in each well contained 50 mM Tris-HCL (pH 8.0), 50 μM HQ, 1 μM MnCl2, 0.5 μM activated H2DCF and the exemplary FXN fusion protein at the concentration of 10 μM (high control), 0.5 μM (low control) and 0 μM (blank control). After the assay mix was added to the plate, the plate was immediately placed in the plate reader, and the kinetic read was initiated. The plate reader settings were as follows: 45-minute kinetic scan with a Fluorescent read (excitation 482/20, emission 530/25, and a gain of 50) every minute with a 3 second shake in between reads. Maximum initial velocity (Vi) was determined for each well by measuring the fastest change in arbitrary fluorescence unit (AFU) over 5 data points. The statistical parameters, such as signal-to-background (S/B) ratio, Z′ factor, and intra- and inter-plate variability were calculated to characterize the assay performance.

FXN-deficient cell lines = experiment: Genomic footprint of FXN-deficient cell lines before and after FXN fusion protein treatment; type: cell-based; settings: data not shown
Excerpt: (§1) FXN fusion protein having the amino acid sequence of SEQ ID NO: 12 comprises a cell penetrating peptide, HIV-TAT (SEQ ID NO: 4), and a full length hFXN (SEQ ID NO: 1), linked through a linker at the N-terminus of the hFXN.

FDRA mouse model = experiment: Treatment of an FDRA mouse model; type: in vivo; settings: data not shown
Excerpt: as §1

[5] = in the presence and absence of metal ions; FIG. 1
Description: Protocol for Hydroquinone (HQ) Reduction Assay
a. 1 ml of 1 mM H2DCFDA (in DMSO) is added to 20 mL of 0.01 M NaOH working solution to generate the activating solution. The solution is stirred for 30 minutes at room temperature in the dark.
b. 79 mL of 33 mM NaH2PO4 solution is added to the activating solution to yield a final concentration of 10 μM H2DCF.
b. Excitation and emission reading of the plate is performed every minute, or as required, with a spectrometer set for the following parameters: excitation at 485/20, emission at 528/20, optics from the top, a read height of 1 mm, and a gain of 50.
To each well add: • i. 10 μL of 20× Hydroquinone (to 20 μM final concentration) • ii. 10 μL of 20×Mn^2 (5 μM final concentration)
b. Tris Buffer Addition • i. FXN protein sample well: 168 μL • ii.
b. 10 μL of H2DCF (10 μM working solution) is added to every well (except the DCF standard curve) to arrive at a final concentration of 0.5 μM H2DCF.
b. […] Velocity calculated on 5 points; • 3. Relative fluorescence units (RFU) per minute. • ii. Vi generated from the fluorescence scanner is plotted on a scatter plot • 1. […]
c. […] The line should go through 0,0, and the slope recorded. […]
Generation of ROS, i.e., superoxide, was detected using an ROS detector compound, such as for example, 2′,7′-dichlorodihydrofluorescein (H2DCF), and was followed kinetically, as shown in Panel A of FIG. 1. […]

[6] = in the absence of Fe^3+; 10 μM FXN fusion protein, 10 μM HQ, 5 μM H2DCF
Description: In another experiment, the effect of the presence of Fe^3+ ions on the activity of an exemplary FXN fusion protein was studied. In this experiment, the kinetics of ROS generated over time was measured in assay mixtures containing 10 μM exemplary FXN fusion protein, 10 μM HQ, and 5 μM H2DCF. One assay mixture also contained 1 mM deferoxamine, an iron chelator.

[7] = Drug substance (DS) control (stored at −80° C.)
[8] = Acid and alkaline control: 37° C. for 2 days
[9] = Acid stress: pH ≤4, at 37° C. for 2 days
[10] = Alkaline stress: pH ≥10, at 37° C. for 2 days
[11] = Heat stress: 50° C. for 2 hours
[12] = Oxidation control: 37° C. for 2 hours
[13] = Oxidation: 0.05% peroxide at 37° C. for 2 hours
[14] = Study control: 2-8° C. for 2 hours

With `NC(=O)C1=CN([C@@H]2O[C@H](COP(=O)(O)OP(=O)(O)OC[C@H]3O[C@@H](n4cnc5c(N)ncnc54)[C@H](O)[C@@H]3O)[C@@H](O)[C@H]2O)C=CC1` [NADH] as the molecule, how does the “effect on ROS production / redox activity of the FXN fusion protein” value (FXN fusion protein) read?
The value was “did not affect the redox activity”.

For `NC(=O)C1=CN([C@@H]2O[C@H](COP(=O)(O)OP(=O)(O)OC[C@H]3O[C@@H](n4cnc5c(N)ncnc54)[C@H](OP(=O)(O)O)[C@@H]3O)[C@@H](O)[C@H]2O)C=CC1` [NADPH], which “effect on ROS production / redox activity of the FXN fusion protein” value (FXN fusion protein) is on record?
Its value is “significantly diminished ROS production”.

B1: FXN fusion protein: cell penetrating peptide HIV-TAT linked through a linker to the N-terminus of full length hFXN; amino acid sequence of SEQ ID NO: 12 (protein)
chain: MYGRKKRRQRRRGGMWTLGRRAVAGLLASPSPAQAQTLTRVPRPAELAPLCGRRGLRTDIDATCTPRRASSNQRGLNQIWNVKKQSVYLMNLRKSGTLGHPGSLDETTYERLAEETLDSLAEFFEDLADKPYTFEDYDVSFGSGVLTVKLGGDLGTYVINKQTPNKQIWLSSPSSGPKRYDWTGKNWVYSHDGVSLHELLAAELTKALKTKLDLSSLAYSGKDA
Which “Result (% activity)” value [1, 7] does the source give for B1 here?
The value was 100.2%.

And the Vi [1, 7]?
Its Vi is “(1126 Vi units)”.

What about the “Result (% activity)” value ([1]; SPL1: −60° C. for 1 month) of the same molecule?
Its value is 100%.

What about the Vi ([1]; SPL1: −60° C. for 1 month) of the same molecule?
The Vi was “(1123 Vi units)”.

And the “Result (% activity)” value ([1]; SPL2: 2-4° C. for 1 month)?
The value was 66.4%.

And the Vi ([1]; SPL2: 2-4° C. for 1 month)?
The Vi was “(746 Vi units)”.

And the “Result (% activity)” value ([1]; SPL3: 25° C. for 1 month)?
Its value is 23.4%.

What about the Vi ([1]; SPL3: 25° C. for 1 month) of the same molecule?
Its Vi is “(263 Vi units)”.

And the “activity in the HQ Assay after storage” value ([1]; storage in conditions other than −60° C. for one month)?
Its value is “decreased activity”.

And the “Result (% activity)” value [2, 8]?
The value was 79.7%.

And the Vi [2, 8]?
Its Vi is “(1,730 Vi units)”.

What about the “Result (% activity)” value [2, 9] of the same molecule?
The value was 23.7%.

And the Vi [2, 9]?
Its Vi is “(689 Vi units)”.

And the “Result (% activity)” value [2, 10]?
Its value is 0.02%.

What about the Vi [2, 10] of the same molecule?
Its Vi is “(0.7 Vi units)”.

And the “Result (% activity)” value [2, 11]?
The value was 96.9%.

And the Vi [2, 11]?
The Vi was “(2,820 Vi units)”.

And the “Result (% activity)” value [2, 12]?
Its value is 59.5%.

And the Vi [2, 12]?
The Vi was “(1,730 Vi units)”.

What about the “Result (% activity)” value [2, 13] of the same molecule?
The value was 2.2%.

And the Vi [2, 13]?
The Vi was “(63 Vi units)”.

And the “Result (% activity)” value [2, 14]?
The value was 100%.

And the Vi [2, 14]?
Its Vi is “(2,908 Vi units)”.

And the “stability of HQ activity to acid stress” value ([2]; acid stress)?
The value was “partly susceptible”.

And the “stability of HQ activity to alkaline stress” value ([2]; alkaline stress)?
Its value is “susceptible”.

And the “stability of HQ activity to heat stress” value ([2]; heat stress applied for 2 hours)?
Its value is “to a large extent, was resistant to heat stress”.

What about the “stability of HQ activity to oxidation stress” value ([2]; oxidation stress) of the same molecule?
Its value is “susceptible”.

What about the “pH at which activity peaks” value ([3]; pH 7.0 to 9.0) of the same molecule?
Its value is “about 8.5”.

And the “superoxide-generating activity (Vi)” value ([3]; pH of 7.4 or lower)?
The value was “almost no activity”.

And the “Mean Vi” value ([4]; Plate 1, High control (10 µM FXN fusion protein))?
The value was 5390.0.

What about the “Mean Vi” value ([4]; Plate 1, Low control (0.5 μM FXN fusion protein)) of the same molecule?
Its value is 471.0.

And the “Mean Vi” value ([4]; Plate 2, High control (10 μM FXN fusion protein))?
The value was 4995.1.

And the “Mean Vi” value ([4]; Plate 2, Low control (0.5 μM FXN fusion protein))?
Its value is 635.5.

And the “Mean Vi” value ([4]; Plates 1 and 2 combined, High control (10 μM FXN fusion protein))?
Its value is 5192.5.

What about the “Mean Vi” value ([4]; Plates 1 and 2 combined, Low control (0.5 μM FXN fusion protein)) of the same molecule?
The value was 553.2.

And the “expression of a set of genes before and after treatment” value (FXN-deficient cell lines)?
The value was “significant difference in the expression of a set of genes”.

What about the “cardiomyopathic phenotype, for example cardiac contractility” value (FDRA mouse model) of the same molecule?
Its value is “measurable improvement in the cardiomyopathic phenotype”.

And the “enzymatic activity, as measured by ROS generation over time” value [5]?
Its value is “possesses enzymatic activity”.

And the “lag time to ROS generation” value [6]?
Its value is “approximately 2 hours”.
